Where two headings read alike, the source gives them in different places.
T1: hNectin-2 (ACRO, PV2-H52E2) (human, UniProt Q92692 32-360)
T1 construct: bought
T1 sequence (looked up): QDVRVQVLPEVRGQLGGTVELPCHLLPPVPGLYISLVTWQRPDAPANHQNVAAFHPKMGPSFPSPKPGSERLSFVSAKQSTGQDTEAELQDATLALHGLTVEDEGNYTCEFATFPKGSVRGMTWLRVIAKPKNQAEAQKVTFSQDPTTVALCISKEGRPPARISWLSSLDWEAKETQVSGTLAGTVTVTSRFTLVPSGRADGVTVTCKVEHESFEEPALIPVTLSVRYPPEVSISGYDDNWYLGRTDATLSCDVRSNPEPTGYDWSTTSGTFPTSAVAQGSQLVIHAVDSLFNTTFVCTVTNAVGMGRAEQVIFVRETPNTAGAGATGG

T2: hNectin-1 (ACRO, PV1-H5223) (human, UniProt Q15223 31-334)
T2 construct: bought
T2 sequence (looked up): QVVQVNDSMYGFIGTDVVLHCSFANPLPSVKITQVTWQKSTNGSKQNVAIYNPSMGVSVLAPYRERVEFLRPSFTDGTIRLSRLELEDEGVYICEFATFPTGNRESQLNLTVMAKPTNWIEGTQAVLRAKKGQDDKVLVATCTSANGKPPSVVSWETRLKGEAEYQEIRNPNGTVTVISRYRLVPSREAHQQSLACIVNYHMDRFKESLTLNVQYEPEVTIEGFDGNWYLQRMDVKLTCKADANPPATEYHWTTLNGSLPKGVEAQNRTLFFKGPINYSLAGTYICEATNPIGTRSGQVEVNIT

T3: Nectin-4 on T-47D cells (human, UniProt Q96NY8 32-510)
T3 construct: whole, on cells; endogenous expression; also called T-47D cells positive for Nectin-4 expression
T3 sequence (looked up): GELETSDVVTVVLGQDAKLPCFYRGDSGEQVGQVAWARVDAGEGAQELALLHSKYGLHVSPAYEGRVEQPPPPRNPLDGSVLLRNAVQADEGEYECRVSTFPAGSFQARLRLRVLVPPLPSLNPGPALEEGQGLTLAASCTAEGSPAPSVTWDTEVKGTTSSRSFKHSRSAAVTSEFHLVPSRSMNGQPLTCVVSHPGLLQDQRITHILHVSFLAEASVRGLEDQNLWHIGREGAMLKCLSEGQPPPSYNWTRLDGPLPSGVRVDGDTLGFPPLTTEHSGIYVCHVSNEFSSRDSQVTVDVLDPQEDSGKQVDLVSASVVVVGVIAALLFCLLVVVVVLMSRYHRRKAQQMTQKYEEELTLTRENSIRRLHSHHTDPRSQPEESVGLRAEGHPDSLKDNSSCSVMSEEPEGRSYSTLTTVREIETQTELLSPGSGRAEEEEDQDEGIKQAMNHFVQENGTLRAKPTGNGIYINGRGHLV


Key:
[1] = biological target: T1, hNectin-2 (ACRO, PV2-H52E2); assay: ELISA, antigen coated, HRP-labeled anti-human-Kappa secondary antibody
Experimental: (§1) The binding activity of intact antibodies was detected by ELISA. The procedures are briefly described as follows: the hNectin-4-His antigen protein of Example 1 was immobilized at a concentration of 1 μg/mL on a plate; the plate was blocked with skimmed milk powder overnight, and then, serially diluted antibodies of interest were added for co-incubation (antibodies in Table 9 were serially 2-fold diluted from 2 μg/mL; antibodies in Tables 10 and 11 were serially 3-fold diluted from 10 μg/mL) at room temperature for 2 h; then an HRP-labeled anti-human-kappa (Sigma, A7164) secondary antibody was added for co-incubation for 1 h, followed by the addition of TMB (Huzhou InnoReagents, TMB-S-001) for chromogenic reaction, and the reaction was stopped with 0.1 M H₂SO₄; after the absorbance at OD450 was read on a microplate reader, the binding EC₅₀ value for each antibody was calculated by four-parameter fitting, and the binding activities of the antibodies were compared.
(§2) In this assay, the binding of different antibodies to human Nectin-4 homologous proteins hNectin-1 (ACRO, PV1-H5223), hNectin-2 (ACRO, PV2-H52E2), hNectin-3 (ACRO, PV3-H52E4), and hNectin-4-His was detected by ELISA to determine the specificity of the antibodies. For the methodology and procedures, see Example 4. Antigens of interest ([…]) were immobilized; after blocking, serially diluted antibodies (2-fold serially diluted from […]) were added, and HRP-labeled anti-human-Kappa secondary antibody was added for chromogenic reaction.

[2] = biological target: T2, hNectin-1 (ACRO, PV1-H5223); assay: as above
Experimental: as §1, §2

[3] = biological target: T3, Nectin-4 on T-47D cells; assay: FACS on T-47D cells, 10 µg/mL on ice, 0 h point of the endocytosis assay
Experimental: (§3) In this assay, the relative amount of antibodies remaining on the cell surface after co-incubation at 37° C. for a certain period of time was detected by FACS to reflect the endocytosis efficiency. The procedures are briefly described as follows: T-47D cells (human ductal breast cancer cells, derived from the Cell Bank of Chinese Academy of Sciences, Cat. No. TCHu 87); the antibodies were adjusted to 10 μg/mL and co-incubated with the cells on ice for 1 h; the cells were washed 3 times with pre-cooled PBS, and then placed at 37° C. and incubated for 0 h, 2 h and 4 h; 0.2% N₃Na was added to stop the endocytosis reaction; the cells were washed with PBS thrice, followed by the addition of the PE-labeled anti-human Fc secondary antibody (Invitrogen 12-4998-82); the cells were incubated at 4° C. for 30 min; the red fluorescence signal was detected on a flow cytometer.

[4] = biological target: T3, Nectin-4 on T-47D cells; assay: as above; remark: listed apart in the source
Experimental: as §3

Row | MFI (0 h) [3] [MFI] | MFI (0 h) [4] [MFI] | Binder | also measured
1 | 121000 |  | antibody 1F3 (antibody, human IgG1, kappa, V domains shown, intact antibody) VH: not shown VL: DIQMTQSPSSLSASVGDRVTITCRASQGISSYLAWYQQKPGKAPKLLIYAASSLQSGVPSRFSGSGSGTDFTLTISSLQPEDFATYYCQQHYTTPPTFGQGTKVEIKR | binding result [1]: no binding (tested: 2000 ng/mL); binding result [2]: no binding (tested: 2000 ng/mL)
2 | 104000 |  | antibody 10F4 (antibody, human IgG1, kappa, V domains shown, intact antibody) VH: not shown VL: DIQMTQSPSSLSASVGDRVTITCRASQGISSYLAWYQQKPGKAPKLLIYAASSLQSGVPSRFSGSGSGTDFTLTISSLQPEDFATYYCQQHYTTPPTFGQGTKVEIKR | binding result [1]: no binding (tested: 2000 ng/mL); binding result [2]: no binding (tested: 2000 ng/mL)
3 | 107000 | 58600 | reference antibody ASG-22 (antibody, human IgG1, kappa, V domains shown) VH: EVQLVESGGGLVQPGGSLRLSCAASGFTFSSYNMNWVRQAPGKGLEWVSYISSSSSTIYYADSVKGRFTISRDNAKNSLSLQMNSLRDEDTAVYYCARAYYYGMDVWGQGTLVTVSS VL: DIQMTQSPSSVSASVGDRVTITCRASQGISGWLAWYQQKPGKAPKFLIYAASTLQSGVPSRFSGSGSGTDFTLTISSLQPEDFATYYCQQANSFPPTFGGGTKVEIKR | 
4 |  | 63400 | antibody 10F4-5 (antibody, human IgG1, kappa, V domains shown, intact antibody) VH: EVQLVESGGGLVQPGGSLRLSCAASGFIFDGYDMSWVRQAPGKGLEWVSVIKDHGGYKFYADSVKGRFTISRDNSKNTLYLQMNSLRAEDTAVYYCAREYSDVVDYVSVRTPLDYWGQGTLVTVSS VL: DIQMTQSPSSLSASVGDRVTITCRASQGISSYLAWYQQKPGKAPKLLIYAASSLQSGVPSRFSGSGSGTDFTLTISSLQPEDFATYYCQQHYTTPPTFGQGTKVEIKR | 
5 | 108000 |  | antibody 1B4 (antibody, human IgG1, kappa, V domains shown, intact antibody) VH: not shown VL: DIQMTQSPSSLSASVGDRVTITCRASQGISSYLAWYQQKPGKAPKLLIYAASSLQSGVPSRFSGSGSGTDFTLTISSLQPEDFATYYCQQHYTTPPTFGQGTKVEIKR | 
6 |  | 59400 | antibody 1F3-2B1 (antibody, human IgG1, kappa, V domains shown, intact antibody) VH: EVQLVESGGGLVQPGGSLRLSCAASGYNFDNYAMSWVRQAPGKGLEWVSGIKPDSATTYYADSVKGRFTISRDNSKNTLYLQMNSLRAEDTAVYYCARAELLAFDVYTASDYWGQGTLVTVSS VL: DIQMTQSPSSLSASVGDRVTITCRASQGISSYLAWYQQKPGKAPKLLIYAASSLQSGVPSRFSGSGSGTDFTLTISSLQPEDFATYYCQQHYTTPPTFGQGTKVEIKR | 
7 |  | 69000 | antibody 1F3-2F3 (antibody, human IgG1, kappa, V domains shown, intact antibody) VH: EVQLVESGGGLVQPGGSLRLSCAASGFNFSDYGMSWVRQAPGKGLEWVSRIDWDGGNTRYADSVKGRFTISRDNSKNTLYLQMNSLRAEDTAVYYCARAELLAFDVYTASDYWGQGTLVTVSS VL: DIQMTQSPSSLSASVGDRVTITCRASQGISSYLAWYQQKPGKAPKLLIYAASSLQSGVPSRFSGSGSGTDFTLTISSLQPEDFATYYCQQHYTTPPTFGQGTKVEIKR | 
8 |  | 73400 | antibody 1F3-1E1 (antibody, human IgG1, kappa, V domains shown, intact antibody) VH: EVQLVESGGGLVQPGGSLRLSCAASGFSFDDYAMSWVRQAPGKGLEWVSIIYPTGSTNYYADSVKGRFTISRDNSKNTLYLQMNSLRAEDTAVYYCARAELLAFDVYTASDYWGQGTLVTVSS VL: DIQMTQSPSSLSASVGDRVTITCRASQGISSYLAWYQQKPGKAPKLLIYAASSLQSGVPSRFSGSGSGTDFTLTISSLQPEDFATYYCQQHYTTPPTFGQGTKVEIKR | 
9 |  | 60500 | antibody 1F3-1G11 (antibody, human IgG1, kappa, V domains shown, intact antibody) VH: EVQLVESGGGLVQPGGSLRLSCAASGYSFTGYGMSWVRQAPGKGLEWVSGISPSGGTIGYADSVKGRFTISRDNSKNTLYLQMNSLRAEDTAVYYCARAELLAFDVYTASDYWGQGTLVTVSS VL: DIQMTQSPSSLSASVGDRVTITCRASQGISSYLAWYQQKPGKAPKLLIYAASSLQSGVPSRFSGSGSGTDFTLTISSLQPEDFATYYCQQHYTTPPTFGQGTKVEIKR | 
10 |  | 58200 | antibody 1F3-2E8 (antibody, human IgG1, kappa, V domains shown, intact antibody) VH: EVQLVESGGGLVQPGGSLRLSCAASGYSFSDYGMSWVRQAPGKGLEWVSWISPSKGSASYADSVKGRFTISRDNSKNTLYLQMNSLRAEDTAVYYCARAELLAFDVYTASDYWGQGTLVTVSS VL: DIQMTQSPSSLSASVGDRVTITCRASQGISSYLAWYQQKPGKAPKLLIYAASSLQSGVPSRFSGSGSGTDFTLTISSLQPEDFATYYCQQHYTTPPTFGQGTKVEIKR | 
11 |  | 65300 | antibody 1F3-1B1 (antibody, human IgG1, kappa, V domains shown, intact antibody) VH: EVQLVESGGGLVQPGGSLRLSCAASGFTFGTYGMSWVRQAPGKGLEWVSGIKPGDSTTYYADSVKGRFTISRDNSKNTLYLQMNSLRAEDTAVYYCARAELLAFDVYTASDYWGQGTLVTVSS VL: DIQMTQSPSSLSASVGDRVTITCRASQGISSYLAWYQQKPGKAPKLLIYAASSLQSGVPSRFSGSGSGTDFTLTISSLQPEDFATYYCQQHYTTPPTFGQGTKVEIKR | 
12 | 107000 |  | antibody 10A4 (antibody, human IgG1, kappa, V domains shown, intact antibody) VH: not shown VL: DIQMTQSPSSLSASVGDRVTITCRASQGISSYLAWYQQKPGKAPKLLIYAASSLQSGVPSRFSGSGSGTDFTLTISSLQPEDFATYYCQQHYTTPPTFGQGTKVEIKR | 
13 |  | 61200 | antibody 10F4-3 (antibody, human IgG1, kappa, V domains shown, intact antibody) VH: EVQLVESGGGLVQPGGSLRLSCAASGFSFGDFAMSWVRQAPGKGLEWVSVIDGHTAYNSYADSVKGRFTISRDNSKNTLYLQMNSLRAEDTAVYYCAREYSDVVDYVSVRTPLDYWGQGTLVTVSS VL: DIQMTQSPSSLSASVGDRVTITCRASQGISSYLAWYQQKPGKAPKLLIYAASSLQSGVPSRFSGSGSGTDFTLTISSLQPEDFATYYCQQHYTTPPTFGQGTKVEIKR | 
14 |  | 58600 | antibody 10F4-1 (antibody, human IgG1, kappa, V domains shown, intact antibody) VH: EVQLVESGGGLVQPGGSLRLSCAASGDSFTNYWMSWVRQAPGKGLEWVSGISQGGSYAYYADSVKGRFTISRDNSKNTLYLQMNSLRAEDTAVYYCAREYSDVVDYVSVRTPLDYWGQGTLVTVSS VL: DIQMTQSPSSLSASVGDRVTITCRASQGISSYLAWYQQKPGKAPKLLIYAASSLQSGVPSRFSGSGSGTDFTLTISSLQPEDFATYYCQQHYTTPPTFGQGTKVEIKR | 
15 | 105000 |  | antibody 3A10 (antibody, human IgG1, kappa, V domains shown, intact antibody) VH: not shown VL: DIQMTQSPSSLSASVGDRVTITCRASQGISSYLAWYQQKPGKAPKLLIYAASSLQSGVPSRFSGSGSGTDFTLTISSLQPEDFATYYCQQHYTTPPTFGQGTKVEIKR | 

Reference: patent publication US20250388667A1 (BIO THERA SOLUTIONS, published 2025)
